Laboratory results taken from the supplement of paper PMC9170038.

Test system: MS2 coat protein
Test: apparent KD of MS2 coat protein; designed switch direction (-1 OFF switch, 1 ON switch): -1; higher = weaker reporter binding
Procedure, shortened: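 Designed RNA switches sharing common flanks were transcribed on Illumina chips by stalled E. coli RNA polymerase. They were titrated with SNAP-549-labelled MS2 coat protein, from 0.7 or 1.5 nM doubling to 3 µM, in Tris-HCl pH 7.5 buffer with KCl, MgCl2, BSA, DTT, tRNA and Tween-20. Titrations ran without input, with 200 uM small-molecule ligand, or with an oligonucleotide input. The apparent KD of each design is the median over its clusters, after curve-fitting of normalised cluster fluorescence.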

[1] = Eterna round: R95, input ligand: microRNA oligo, concentration not stated
[2] = input ligand: microRNA oligo, concentration not stated
[3] = Eterna round: R95, input ligand: FMN 200 uM
[4] = Eterna round: R95, input ligand: none

Sequence | apparent KD of MS2 coat protein (input ligand: FMN 200 uM) | apparent KD of MS2 coat protein (input ligand: none) | apparent KD of MS2 coat protein [1] | also measured
UUUAGUUCAGGAUAUGUAGAAAUUAACAUGAGGAUCACCCAUGUCGAUCCUGAAUUAACUACAGAAGGGAACAUUU [Mod of Brourd 6 - Jieux - Exclusion 5] (Eterna round: R97, puzzle: Exclusion 5) | 50 nM | 14.2 nM |  | 
ACUAGGCGAGGAUAUACAUGCUUAACACAGCGAAAGCUGUGACAUGAGGAUCACCCAUGUAGAAGGCGCAAAUA [Enlaedondi] (puzzle: Exclusion 2) |  |  | 43.2 nM | 
CUUUUUUGAGGAUAUUAGUAGUAAAUAAAUAAAAUUACUACUGAGAAGGCACAUGAGGAUCACCCAUGUUCCUC [salish99_ex4_r3_046] (puzzle: Exclusion 4) |  |  | 17.6 nM | 
UAGCAUUGCCUUUGGUAGUGCCUUACAUGAGGAUCACCCAUGUAGGAUAUGGUAGGCUUUGCUUACCAGAAGGACAUGGUAAUU [JL ENG3 1.06] (Eterna round: R96, puzzle: Exclusion NG 3) |  |  |  | apparent KD of MS2 coat protein [2]: 54.1 nM
CUAACGAAAGGAUAUAUGGCAUGAGACAUGAGGAUCACCCAUGUGAACCACCUACAGUACAUAGAAGGUUCGCUAG [Eternabot (Original) Solution 18] (Eterna round: R97, puzzle: Exclusion 5) | 65.9 nM | 94.6 nM |  | 
ACAUGUAUUGCAGGAUAUGGGACACAUGAGGAUCACCCAUGUGACCAUAUGUAAUGCCACGGGUCUCAGAAGGGUAUGUACAUG [Ex NG2 #44] (Eterna round: R96, puzzle: Exclusion NG 2) | 12.8 nM | 14.1 nM |  | apparent KD of MS2 coat protein [2]: 10.3 nM
GAUUAUGCGAGCUUUAGGGACAUGAGGAUCACCCAUGUUCGUCUUAUUAAUCUAGGUACGCUAACAUACCUAAAUCU [JMF 39] (puzzle: Sensor v3, turn-off variant 1) |  |  | 34.3 nM | apparent KD of MS2 coat protein [3]: 20.3 nM; apparent KD of MS2 coat protein [4]: 20.6 nM
ACAUGUCUUGUAGGAUAUAGUUGACAUGAGGAUCACCCAUGUUGAUUCAUGUCUAUGGAAACGGACUAGAAGGACGAGAAUAUG [Ex NG2 #17] (Eterna round: R96, puzzle: Exclusion NG 2) | 50.5 nM | 25.9 nM |  | apparent KD of MS2 coat protein [2]: 25.3 nM
UCCUUACAUGAGGAUCACCCAUGUCAGGAUAUCUCCUCACUGCGCUUGCGCAGUGGAUAGAGAAGGGACGGGCU [JL ViennaUCT Aner mod 9] (puzzle: Exclusion 1) |  |  | 27.1 nM | apparent KD of MS2 coat protein [3]: 32.3 nM; apparent KD of MS2 coat protein [4]: 32.8 nM
GUGAGGUAAGGAUAUAGUAGUGAAGGUAAAAUAUGAGAAUGCUAGAAGGUACAUGAGGAUCACCCAUGUUAGGG [JR_Exclu4_Sub088] (puzzle: Exclusion 4) |  |  | 146 nM | 
CUUUUGUGAGGAUAUCGGUAGUAAUACAAUAGUAUUACUACUGAGAAGGCACAUGAGGAUCACCCAUGUUCCUC [Ex4 344 Omei mod 9] (puzzle: Exclusion 4) |  |  | 43 nM | 
AUAAUGUGAGGAUAUCAGUCGACUAGCUGCGGCUAGUCGACUGAGAAGGUACAUGAGGAUCACCCAUGUGGUUC [E4/11-B3] (Eterna round: R97, puzzle: Exclusion 4) | 904 nM | 434 nM |  | 
AAUUAGCAAGCGAGGUCCCACAUGAGGAUCACCCAUGUGCUCGUCUUAUAAGGUACUGUGACGAGAGUCACGGUACC [Mat - Sensor, turn-off var - Eli Mod - D35] (Eterna round: R97, puzzle: Sensor, turn-off variant 1) | 13.8 nM | 15.2 nM |  | 
GCCUAACAUGAGGAUCACCCAUGUCAGGAUAUCCAUAAACACCGGGAUGUACUGGACGGGAGAAGGGACAGGGC [Escelazari] (Eterna round: R97, puzzle: Exclusion 1) | 53.5 nM | 51.4 nM |  | 
GAAAACGUAGGAUAUUAAUACUUAUACAUGAGGAUCACCCAUGUUUGGUGGGUUUAAGAAUGAGAAGGGCGAUGAA [EX5 #8] (Eterna round: R97, puzzle: Exclusion 5) | 446 nM | 717 nM |  | 
ACAUGAGGAUCACCCAUGUGAAAACAAUGGCUGACUUUGAGACAGGAUAUUCGUGCAUAUCAAACGAAGAAGGGUCAUUACUGG [Deportation 94 - Jieux - Exclusion NG 3] (Eterna round: R96, puzzle: Exclusion NG 3) | 42.2 nM | 37.7 nM |  | apparent KD of MS2 coat protein [2]: 26.4 nM
AAAAGGCGUGUGAGGAUAUCCGGAGACGUGAAAAGGGAGAAGGCACAUGAGGAUCACCCAUGUGGAGUGUAAAG [Uscece] (puzzle: Brourd's mod of Exclusion 4) |  |  | 18.6 nM | apparent KD of MS2 coat protein [3]: 38.2 nM; apparent KD of MS2 coat protein [4]: 27.5 nM

Sequence | apparent KD of MS2 coat protein (input ligand: FMN 200 uM) | apparent KD of MS2 coat protein (input ligand: none) | apparent KD of MS2 coat protein [1] | also measured
CGGUGCUGAGGAUAUACAUGAGGAUCACCCAUGUGUUCCUGCUAGGUGACUGGCAAAUGUAGAAGGCGGUACUG [JL-ex3-3.37 Brourd mod] (puzzle: Exclusion 3) |  |  | 120 nM | apparent KD of MS2 coat protein [3]: 34.8 nM; apparent KD of MS2 coat protein [4]: 131 nM
GAGUGUUGAGGAUAUACAUGAGGAUCACCCAUGUGCUUCAGCUAGGAGACUAGCAUUGGUAGAAGGCAAUACUC [Mod of lroppy 6 - Jieux - Exclusion 3] (Eterna round: R97, puzzle: Exclusion 3) | 90.7 nM | 14.8 nM |  | 
GGUUAUUCUGUAUGGGUACACAUGAGGAUCACCCAUGUACAGAGGUCUACCCUAAUAUAGCAAGCUGGCCCGUCCUA [Eternabot (L1) Solution 24] (Eterna round: R97, puzzle: Sensor, turn-off variant 1) | 148 nM | 132 nM |  | 
CCCAGUUACUGAGGAUAUCCUACAUGAGGAUCACCCAUGUAAUAAAUGAGGAUUUCGGGUGUCUAGGAGAAGGCAGGGAUAGGC [Ostracism 23 - Jieux - Exclusion NG 2] (Eterna round: R96, puzzle: Exclusion NG 2) | 84.9 nM | 50.3 nM |  | apparent KD of MS2 coat protein [2]: 28.8 nM
ACUCCCAUCGUGAGGAUAUUGAAGCGGGAAGCCGGCAAGAAGGUACAUGAGGAUCACCCAUGUGUGAACAGGAC [Eternabot (L1) Solution 48] (Eterna round: R97, puzzle: Brourd's mod of Exclusion 4) | 14.5 nM | 14.9 nM |  | 
GCCGUAAGUGUGAGGAUAUACCUAUGGAAACAUAGGUAGAAGGCACAUGAGGAUCACCCAUGUUCUCAAUCGGC [Mat - Exclusion 4 - Eli Mod - D5] (Eterna round: R97, puzzle: Brourd's mod of Exclusion 4) | 458 nM | 245 nM |  | 
UUCACAUGGACAUAAGAUCACAUGAGGAUCACCCAUGUGAAUAACAAGCUUUUUGCUCGUCUUAUGUCCAAUAAUAG [Stov1/14-A2] (Eterna round: R97, puzzle: Sensor, turn-off variant 1) | 15.8 nM | 13.3 nM |  | 
UUGAUGUGAGGAUAUAUUUUGUGUUUUCUUUAUGUUUUAUAACUUGAGGAUCACCCAAGUAGAAGGCGCUACGU [JR_Ex2_Sub065] (Eterna round: R97, puzzle: Exclusion 2) | 119 nM | 60.6 nM |  | 
GUAACAUGCUGGUGAUCAUACAUGAGGAUCACCCAUGUAACAAGCUUUUUGCUCGUCUUAUAAUUUAAGAUCACCAG [Stov1/7-A3] (Eterna round: R97, puzzle: Sensor, turn-off variant 1) | 16.3 nM | 16.2 nM |  | 
GUGGUACAUGAGGAUCACCCAUGUUAGGAUAUCGCGUGAGGUUUUACUUCCGCACACACGAGAAGGGACGUCUU (puzzle: Exclusion 1) |  |  | 27.7 nM | 
GAAGUUAGAGGAUAUACAUGAGGAUCACCCAUGUGUGAAGUAAACUUUGUAUGUUUAUGUAGAAGGCUAACUUC [-21.7, -19.9 kcal, 32% A] (Eterna round: R97, puzzle: Exclusion 3) | 94 nM | 19.1 nM |  | 
GCAGCUAAUGCAGGAUAUCAGCACGUGUAGUGCUGAGAAGGGCACAUGAGGAUCACCCAUGUGAUCAAUUAAUAUUAAUGCUGC [ENG1/11-B3] (Eterna round: R96, puzzle: Exclusion NG 1) | 328 nM | 20.5 nM |  | apparent KD of MS2 coat protein [2]: 16.2 nM
CAUACACAUGAGGAUCACCCAUGUGAGGAUAUGCGUACGUUGUCCGUAGGCGACGUGCGCAGAAGGCGCGUGUU [JL-ex1-3.15 Eli mod] (puzzle: Exclusion 1) |  |  | 42.5 nM | 
AAAGAACAUGAGGAUCACCCAUGUGAGGAUAUGCGAAAACCGCUGGCGCACCAGACGGGCAGAAGGCAUAUGGU [Aonustiri] (puzzle: Exclusion 1) |  |  | 48.9 nM | 
AAGAAUCGCAAUACGAAUAAGCAAUACGAACAAUAGCAAACAUGAGGAUCACCCAUGUCAAGGGUGACAACGCUCUA [JR_Sensorv2_tov2_Sub107] (Eterna round: R96, puzzle: Sensor v2, turn-off variant 2) | 173 nM | 862 nM |  | apparent KD of MS2 coat protein [2]: 61.2 nM
UAAGUUCAGUAGGAUAUUCAGCAGCUGCUGCUAGGAGAAGGGCUGACAUGAGGAUCACCCAUGUGAGUGUCCGU [Eternabot (L2) Solution 55] (Eterna round: R97, puzzle: Exclusion 6) | 92.2 nM | 32.1 nM |  | 
UCGUGGAUCGAGGAUAUGCCACGGACAGACGCCGCAGAAGGCGAAACAUGAGGAUCACCCAUGUGUGCCAUCCU [Eternabot (L1) Solution 52] (Eterna round: R97, puzzle: Exclusion 6) | 58.5 nM | 56.5 nM |  | 
